According to the RNAGym collection of RNA variant scans (doi:10.7554/elife.80360):

B1: HDV Ribozyme (parent)
chain: GGCCGGCAUGGUCCCAGCCUCCUCGCUGGCGCCGGCUGGGCAACAUUCCGAGGGGACCGUCCCCUCGGUAAUGGCGAAUGGGACCCA

Variants of: B1
Assay: self-cleavage, relative activity (ratio to wild type); higher = more cleavage; co-transcriptional

Compared with GGCCGGCAUGGUCCCAGCCUCCUCGCUGGCGACGGCUGGACAACAUUCCGAGGGGACCGUCCCCUCGGUAAUGGCGAAUGGGACCCA [C32A G40A], GGCCGGCAUGGUCCCAGCCUCCUCGCUGGCGACGGCUGGGCAACAUUCCAAGGGGACCGUCCCCUCGGUAAUGGCGAAUGGGACCCA [C32A G50A] is lower in self-cleavage: 0.242 for the first, 0.136 for the second.

First: GGCCGGCAUGGUCCCAGCCUCCUCGCUGGCGACGGCUGGGCAACAUUCCCAGGGGACCGUCCCCUCGGUAAUGGCGAAUGGGACCCA [C32A G50C]
Second: GGCCGGCAUGGUCCCAGCCUCCUCGCUGGCGACGGCUGGGCAACAUUCCGAAGGGACCGUCCCCUCGGUAAUGGCGAAUGGGACCCA [C32A G52A]
The self-cleavage of the first is lower: 0.262 for the first, 0.302 for the second.

Going from GGCCGGCAUGGUCCCAGCCUCCUCGCUGGCGACGGCUGGGCAACAUUCCGACGGGACCGUCCCCUCGGUAAUGGCGAAUGGGACCCA [C32A G52C] to GGCCGGCAUGGUCCCAGCCUCCUCGCUGGCGACGGCUGGGCAACAUUCCGAGGGGACCAUCCCCUCGGUAAUGGCGAAUGGGACCCA [C32A G59A], the self-cleavage rises from 0.0831 to 0.373.

Compared with GGCCGGCAUGGUCCCAGCCUCCUCGCUGGCGACGGCUGGGCAACAUUCCGAGGGGACCCUCCCCUCGGUAAUGGCGAAUGGGACCCA [C32A G59C], GGCCGGCAUGGUCCCAGCCUCCUCGCUGGCGACGGCUGGGCAACAUUCCGAGGGGACCGUCCCCUCUGUAAUGGCGAAUGGGACCCA [C32A G67U] is lower in self-cleavage: 0.271 for the first, 0.232 for the second.

Compared with GGCCGGCAUGGUCCCAGCCUCCUCGCUGGCGACGGCUGGGCAACAUUCCGAGGGGACCGUCCCCUCGCUAAUGGCGAAUGGGACCCA [C32A G68C], GGCCGGCAUGGUCCCAGCCUCCUCGCUGGCGACGGCUGGGCAACAUUCCGAGGGGACCGUCCCCUCGUUAAUGGCGAAUGGGACCCA [C32A G68U] is lower in self-cleavage: 0.113 for the first, 0.0906 for the second.

Going from GGCCGGCAUGGUCCCAGCCUCCUCGCUGGCGACGGCUGGGCAACAUUCCGAGGGGACCGUCCCCUCGGUAAUGCCGAAUGGGACCCA [C32A G74C] to GGCCGGCAUGGUCCCAGCCUCCUCGCUGGCGACGGCUGGGCAACAUUCCGAGGGGACCGUCCCCUCGGUAAUGGCGAAUGGAACCCA [C32A G82A], the self-cleavage falls from 0.108 to 0.0361.

Going from GGCCGGCAUGGUCCCAGCCUCCUCGCUGGCGACGGCUGGGCAACAUCCCGAGGGGACCGUCCCCUCGGUAAUGGCGAAUGGGACCCA [C32A U47C] to GGCCGGCAUGGUCCCAGCCUCCUCGCUGGCGACGGCUGGGCAACAUUCCGAGGGGACCGUCCCCUCGGUAAUGGCGAAAGGGACCCA [C32A U79A], the self-cleavage rises from 0.0462 to 0.121.

Compared with GGCCGGCAUGGUCCCAGCCUCCUCGCUGGCGGCGGCUGGGCAACAUUCCGAGGGGACCGUCCCCUCGGUAAUGGCGAAUGGGACCCA [C32G], GGCCGGCAUGGUCCCAGCCUCCUCGCUGGCGGCGGCUGGGCGACAUUCCGAGGGGACCGUCCCCUCGGUAAUGGCGAAUGGGACCCA [C32G A42G] is lower in self-cleavage: 0.103 for the first, 0.0426 for the second.

First: GGCCGGCAUGGUCCCAGCCUCCUCGCUGGCGGCGGCUGGGCUACAUUCCGAGGGGACCGUCCCCUCGGUAAUGGCGAAUGGGACCCA [C32G A42U]
Second: GGCCGGCAUGGUCCCAGCCUCCUCGCUGGCGGCGGCUGGGCACCAUUCCGAGGGGACCGUCCCCUCGGUAAUGGCGAAUGGGACCCA [C32G A43C]
The self-cleavage of the first is higher: 0.0594 for the first, 0.0536 for the second.

Compared with GGCCGGCAUGGUCCCAGCCUCCUCGCUGGCGGCGGCUGGGCAUCAUUCCGAGGGGACCGUCCCCUCGGUAAUGGCGAAUGGGACCCA [C32G A43U], GGCCGGCAUGGUCCCAGCCUCCUCGCUGGCGGCGGCUGGGCAACGUUCCGAGGGGACCGUCCCCUCGGUAAUGGCGAAUGGGACCCA [C32G A45G] is higher in self-cleavage: 0 for the first, 0.0811 for the second.

First: GGCCGGCAUGGUCCCAGCCUCCUCGCUGGCGGCGGCUGGGCAACUUUCCGAGGGGACCGUCCCCUCGGUAAUGGCGAAUGGGACCCA [C32G A45U]
Second: GGCCGGCAUGGUCCCAGCCUCCUCGCUGGCGGCGGCUGGGCAACAUUCCGAGGGGACCGUCCCCUCGGUCAUGGCGAAUGGGACCCA [C32G A70C]
The self-cleavage of the first is lower: 0.142 for the first, 0.38 for the second.

Compared with GGCCGGCAUGGUCCCAGCCUCCUCGCUGGCGGCGGCUGGGCAACAUUCCGAGGGGACCGUCCCCUCGGUAUUGGCGAAUGGGACCCA [C32G A71U], GGCCGGCAUGGUCCCAGCCUCCUCGCUGGCGGCGGCUGGGCAACAUUCCGAGGGGACCGUCCCCUCGGUAAUGGCGAAUGGGUCCCA [C32G A83U] is higher in self-cleavage: 0.115 for the first, 0.166 for the second.

Compared with GGCCGGCAUGGUCCCAGCCUCCUCGCUGGCGGCGGGUGGGCAACAUUCCGAGGGGACCGUCCCCUCGGUAAUGGCGAAUGGGACCCA [C32G C36G], GGCCGGCAUGGUCCCAGCCUCCUCGCUGGCGGCGGCUGGGGAACAUUCCGAGGGGACCGUCCCCUCGGUAAUGGCGAAUGGGACCCA [C32G C41G] is higher in self-cleavage: 0.0449 for the first, 0.0665 for the second.

Going from GGCCGGCAUGGUCCCAGCCUCCUCGCUGGCGGCGGCUGGGCAACAUUACGAGGGGACCGUCCCCUCGGUAAUGGCGAAUGGGACCCA [C32G C48A] to GGCCGGCAUGGUCCCAGCCUCCUCGCUGGCGGCGGCUGGGCAACAUUGCGAGGGGACCGUCCCCUCGGUAAUGGCGAAUGGGACCCA [C32G C48G], the self-cleavage rises from 0.0378 to 0.0437.

Going from GGCCGGCAUGGUCCCAGCCUCCUCGCUGGCGGCGGCUGGGCAACAUUCUGAGGGGACCGUCCCCUCGGUAAUGGCGAAUGGGACCCA [C32G C49U] to GGCCGGCAUGGUCCCAGCCUCCUCGCUGGCGGCGGCUGGGCAACAUUCCGAGGGGAUCGUCCCCUCGGUAAUGGCGAAUGGGACCCA [C32G C57U], the self-cleavage falls from 0.0811 to 0.0702.

Going from GGCCGGCAUGGUCCCAGCCUCCUCGCUGGCGGCGGCUGGGCAACAUUCCGAGGGGACCGUCCGCUCGGUAAUGGCGAAUGGGACCCA [C32G C63G] to GGCCGGCAUGGUCCCAGCCUCCUCGCUGGCGGCGGCUGGGCAACAUUCCGAGGGGACCGUCCUCUCGGUAAUGGCGAAUGGGACCCA [C32G C63U], the self-cleavage rises from 0.0831 to 0.112.
